Columns and labels:
[1] = target: T1, human 4-1BB (CD137) on Jurkat-hu4-1BB-NFκB-luc2 reporter cells (human, UniProt Q07011 24-255); test: cell-based or functional assay
[2] = target: T1, human 4-1BB (CD137) on …; test: cell-based or functional assay; parameters: AUC of NFκB-luciferase activation curve, no CEA+ cells / AUC of NFκB-luciferase activation curve, with CHO-k1-cynoCEACAM5 clone 8: unit not given beside the values
[3] = target: T2, cynomolgus monkey CEACAM5 on CHO-k1-cynoCEACAM5 clone 8 cells (cynomolgus monkey); test: flow cytometry on CHO-k1-cynoCEACAM5 clone 8
T2 construct: whole, on cells
Method: (§1) Cells were incubated for 30 min at 4° C. and then washed twice with 80 μL/well DPBS. […] Cells were washed twice with 80 μL/well DPBS and then fixed in 30 μL/well DPBS containing 1% Formaldehyde for at least 15 minutes. The same or the next day cells were resuspended in 50 μL/well FACS-buffer and acquired using MACSQuant Analyzer X (Miltenyi Biotec).

[4] = target: T2, cynomolgus monkey CEACAM5 on …; test: flow cytometry on CHO-k1-cynoCEACAM5 clone 8; parameters: unit not given beside the values
[5] = target: T3, human CEACAM5 (CEA) on cells (human, UniProt P06731 35-685); test: flow cytometry on CHO-k1-humanCEACAM5 clone 11
T3 construct: Endogenous on MKN45 cells; full-length cDNA transfected into CHO-K1 cells; also called CEA expressed on MKN45 cells; CHO-k1-huCEACAM5 clone 11, clone 12, clone 13
T3 sequence: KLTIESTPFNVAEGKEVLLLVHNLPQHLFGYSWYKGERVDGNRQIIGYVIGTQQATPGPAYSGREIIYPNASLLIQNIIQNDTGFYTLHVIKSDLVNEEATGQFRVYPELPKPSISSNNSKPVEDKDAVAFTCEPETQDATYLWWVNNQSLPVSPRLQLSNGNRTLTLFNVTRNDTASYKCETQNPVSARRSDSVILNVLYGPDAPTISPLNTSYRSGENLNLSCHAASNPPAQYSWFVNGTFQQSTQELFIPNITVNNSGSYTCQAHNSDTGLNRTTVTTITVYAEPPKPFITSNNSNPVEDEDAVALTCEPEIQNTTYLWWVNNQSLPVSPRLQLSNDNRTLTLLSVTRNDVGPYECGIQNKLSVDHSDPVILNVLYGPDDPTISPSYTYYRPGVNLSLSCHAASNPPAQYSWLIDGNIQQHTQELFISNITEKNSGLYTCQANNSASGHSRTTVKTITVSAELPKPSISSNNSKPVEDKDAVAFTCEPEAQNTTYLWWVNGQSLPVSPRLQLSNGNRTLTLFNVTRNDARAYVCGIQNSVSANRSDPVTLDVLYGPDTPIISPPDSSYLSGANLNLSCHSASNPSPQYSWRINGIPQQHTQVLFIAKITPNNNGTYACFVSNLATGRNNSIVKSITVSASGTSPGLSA
Method: as §1

[6] = target: T3, human CEACAM5 (CEA) on cells; test: flow cytometry on CHO-k1-humanCEACAM5 clone 12
Method: as §1

[7] = target: T3, human CEACAM5 (CEA) on cells; test: flow cytometry on CHO-k1-humanCEACAM5 clone 13
Method: as §1

[8] = target: T1, human 4-1BB (CD137) on …; test: cell-based or functional assay; remark: listed apart in the source
[9] = target: T4, human 4-1BB Fc(kih) (human, UniProt P01857 104-328 = IgG part); test: SPR (Biacore T200), human 4-1BB-Fc(kih) amine-coupled on a CM5 chip, antibody 150 nM as analyte 1
T4 construct: Monomeric Fc-linked antigen: 4-1BB ectodomain, AcTEV site, Fc knob and Avi tag, paired with an Fc hole chain; also called hu4-1BB-Fc(kih); human 4-1BB antigen Fc knob chain with Fc hole chain
T4 sequence (P01857 other isoform, or with tags, fused parts or gaps limits assumed): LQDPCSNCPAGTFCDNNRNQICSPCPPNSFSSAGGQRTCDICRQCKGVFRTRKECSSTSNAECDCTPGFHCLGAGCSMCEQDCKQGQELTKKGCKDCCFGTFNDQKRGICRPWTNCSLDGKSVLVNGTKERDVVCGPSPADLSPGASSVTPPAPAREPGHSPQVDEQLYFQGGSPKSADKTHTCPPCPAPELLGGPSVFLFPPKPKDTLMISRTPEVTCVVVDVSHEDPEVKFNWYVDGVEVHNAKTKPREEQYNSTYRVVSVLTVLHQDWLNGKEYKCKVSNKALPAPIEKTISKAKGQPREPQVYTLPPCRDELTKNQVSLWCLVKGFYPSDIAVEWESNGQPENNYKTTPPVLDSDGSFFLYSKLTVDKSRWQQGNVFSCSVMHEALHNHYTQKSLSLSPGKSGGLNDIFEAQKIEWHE
Method: All SPR experiments were performed on a Biacore T200 at 25° C. with HBS-EP as running buffer (0.01 M HEPES pH 7.4, 0.15 M NaCl, 3 mM EDTA, 0.005% Surfactant P20, Biacore, Freiburg/Germany). […] Immobilization level of approx. 900 RU was used.
The dissociation was monitored for 240 sec. Bulk refractive index differences were corrected for by subtracting the response obtained in a reference flow cell, where no protein was immobilized.

[10] = target: T1, human 4-1BB (CD137) on …; test: flow cytometry on Jurkat-hu4-1BB-NFκB-luc2 cells
Method: Plates were incubated for 30 minutes at 4° C. and washed once with 200 μL 4° C. cold DPBS buffer. […] Cells were washed twice with 200 μL 4° C. DPBS buffer and then resuspended in 50 μL/well DPBS containing 1% Formaldehyde for fixation. The same or the next day cells were resuspended in 100 μL FACS-buffer and acquired using MACSQuant Analyzer X (Miltenyi Biotec).

[11] = target: T5, human PD-L1 on MKN45-huPD-L1 cells (human, UniProt Q9NZQ7 19-290); test: flow cytometry on MKN45-huPD-L1 cells, goat F(ab')2 anti-human Fcγ-PE, gMFI baseline corrected
T5 construct: Full-length cDNA transfected into MKN45 cells; also called humanPD-L1-expressing MKN45 cells
T5 sequence (Q9NZQ7 19-290 limits assumed): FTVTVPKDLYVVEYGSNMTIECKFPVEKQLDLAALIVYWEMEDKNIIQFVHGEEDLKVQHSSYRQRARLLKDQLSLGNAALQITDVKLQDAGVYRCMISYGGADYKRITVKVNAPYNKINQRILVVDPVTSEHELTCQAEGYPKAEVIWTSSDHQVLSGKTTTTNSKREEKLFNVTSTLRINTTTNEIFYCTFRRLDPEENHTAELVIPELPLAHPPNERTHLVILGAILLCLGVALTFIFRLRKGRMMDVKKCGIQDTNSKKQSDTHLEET
Method: as §1

[12] = target: T3, human CEACAM5 (CEA) on cells; test: flow cytometry on CHO-K1-humanCEACAM5 clone 12 cells, goat F(ab')2 anti-human Fcγ-PE, median fluorescence intensity baseline corrected
Method: as §1

B1: 2+1 H2H 4-1BB (20H4.9)/CEA (A5B7) P329GLALA IgG1 (bispecific antibody)
heavy 1: QVQLQQWGAGLLKPSETLSLTCAVYGGSFSGYYWSWIRQSPEKGLEWIGEINHGGYVTYNPSLESRVTISVDTSKNQFSLKLSSVTAADTAVYYCARDYGPGNYDWYFDLWGRGTLVTVSSASTKGPSVFPLAPSSKSTSGGTAALGCLVEDYFPEPVTVSWNSGALTSGVHTFPAVLQSSGLYSLSSVVTVPSSSLGTQTYICNVNHKPSNTKVDEKVEPKSCDKTHTCPPCPAPEAAGGPSVFLFPPKPKDTLMISRTPEVTCVVVDVSHEDPEVKFNWYVDGVEVHNAKTKPREEQYNSTYRVVSVLTVLHQDWLNGKEYKCKVSNKALGAPIEKTISKAKGQPREPQVCTLPPSRDELTKNQVSLSCAVKGFYPSDIAVEWESNGQPENNYKTTPPVLDSDGSFFLVSKLTVDKSRWQQGNVFSCSVMHEALHNHYTQKSLSLSP
heavy 2: not shown
light 1: not shown
light 2: EVKLVESGGGLVQPGGSLRLSCATSGFTFTDYYMNWVRQPPGKALEWLGFIGNKANGYTTEYSASVKGRFTISRDKSQSILYLQMNTLRAEDSATYYCTRDRGLRFYFDYWGQGTTLTVSSASVAAPSVFIFPPSDEQLKSGTASVVCLLNNFYPREAKVQWKVDNALQSGNSQESVTEQDSKDSTYSLSSTLTLSKADYEKHKVYACEVTHQGLSSPVTKSFNRGEC
notes: also called 2+1 H2H anti-4-1BB (20H4.9)×anti-CEA (A5B7) huIgG1 P329GLALA
EC50 of NFκB-luciferase activation curve, no CEA+ cells [1]: 0.04 nM
EC50 of NFκB-luciferase activation curve, with CHO-k1-cynoCEACAM5 clone 8 [1]: 0.07 nM
EC50 of NFκB-luciferase activation curve, with CHO-k1-humanCEACAM5 clone 11 [1]: 0.04 nM
EC50 of NFκB-luciferase activation curve, with CHO-k1-humanCEACAM5 clone 12 [1]: 0.03 nM
AUC of NFκB-luciferase activation curve, no CEA+ cells [2]: 1320
AUC of NFκB-luciferase activation curve, with CHO-k1-cynoCEACAM5 clone 8 [2]: 43100
AUC of NFκB-luciferase activation curve, with CHO-k1-humanCEACAM5 clone 11 [2]: 65700
AUC of NFκB-luciferase activation curve, with CHO-k1-humanCEACAM5 clone 12 [2]: 58900
EC50 [3]: 48.8 nM
AUC [4]: 4850
EC50 [5]: 11.4 nM
EC50 [6]: 13.9 nM
EC50 [7]: 12.9 nM

B2: 1+1 4-1BB (20H4.9)/PD-L1 human IgG1 PGLALA (bispecific antibody)
heavy 1: B1 heavy 1
heavy 2: not shown
light 1: not shown
light 2: not shown
notes: Monovalent for 4-1BB and for PD-L1; also called 1+1 anti-4-1BB (20H4.9)×anti-PD-L1 huIgG1 P329GLALA; 1+1 H2H 4-1BB (20H4.9)/PD-L1 human IgG1 PGLALA
EC50 of NFκB-luciferase activation curve, with MKN45-huPD-L1 cells [8]: 0.1 nM
binding result [9]: binds

B3: anti-4-1BB (20H4.9) huIgG1 P329GLALA (antibody, V domains shown)
VH: QVQLQQWGAGLLKPSETLSLTCAVYGGSFSGYYWSWIRQSPEKGLEWIGEINHGGYVTYNPSLESRVTISVDTSKNQFSLKLSSVTAADTAVYYCARDYGPGNYDWYFDLWGRGTLVTVSS
VL: EIVLTQSPATLSLSPGERATLSCRASQSVSSYLAWYQQKPGQAPRLLIYDASNRATGIPARFSGSGSGTDFTLTISSLEPEDFAVYYCQQRSNWPPALTFGGGTKVEIK
notes: Standard huIgG1 P329G LALA antibody with two anti-4-1BB Fabs
EC50 of NFκB-luciferase activation curve, no CEA+ cells [1]: 0.19 nM
EC50 of NFκB-luciferase activation curve, with CHO-k1-cynoCEACAM5 clone 8 [1]: 0.17 nM
EC50 of NFκB-luciferase activation curve, with CHO-k1-humanCEACAM5 clone 11 [1]: 0.18 nM
EC50 of NFκB-luciferase activation curve, with CHO-k1-humanCEACAM5 clone 12 [1]: 0.19 nM
AUC of NFκB-luciferase activation curve, no CEA+ cells [2]: 5070
AUC of NFκB-luciferase activation curve, with CHO-k1-cynoCEACAM5 clone 8 [2]: 4920
AUC of NFκB-luciferase activation curve, with CHO-k1-humanCEACAM5 clone 11 [2]: 15400
AUC of NFκB-luciferase activation curve, with CHO-k1-humanCEACAM5 clone 12 [2]: 11900
AUC [4]: 136
EC50 [10]: 0.073 nM
binding result [11]: no binding (tested: 100 nM)
binding result [12]: no binding (tested: about 300 nM)

Reference: patent US20210253724A1 (Hoffmann-La Roche, published 2021)
